Test results as given in patent US12698494.
Residue numbers refer to the chain shown, from its start. Names and notes keep the numbering of the source.

What was measured:
[1] = biological target: Von Willebrand Factor (VWF) multimers, P04275
[2] = biological target: T1, FRETS-VWF73 fluorogenic substrate, P04275
T1 chain: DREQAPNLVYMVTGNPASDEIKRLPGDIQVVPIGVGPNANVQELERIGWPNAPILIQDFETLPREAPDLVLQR

B1: ADAMTS13 variant NGLY3 plus L591A/R636A/L637A/L668A (protein)
chain: AAGGILHLELLVAVGPDVFQAHQEDTERYVLTNLNIGAELLRDPSLGAQFRVHLVKMVILTEPEGAPNITANLTSSLLSVCGWSQTINPEDDTDPGHADLVLYITRFDLELPDGNRQVRGVTQLGGACSPTWSCLITEDTGFDLGVTIAHEIGHSFGLEHDGAPGSGCGPSGHVMASDGAAPRAGLAWSPCSRRQLLSLLSAGRARCVWDPPRPQPGSAGHPPDAQPGLYYSANEQCRVAFGPKAVACTFAREHLDMCQALSCHTDPLDQSSCSRLLVPLLDGTECGVEKWCSKGRCRSLVELTPIAAVHGRWSSWGPRSPCSRSCGGGVVTRRRQCNNPRPAFGGRACVGADLQAEMCNTQACEKTQLEFMSQQCARTDGQPLRSSPGGASFYHWGAAVPHSQGDALCRHMCRAIGESFIMKRGDSFLDGTRCMPSGPREDGTLSLCVSGSCRTFGCDGRMDSQQVWDRCQVCGGDNSTCSPRKGSFTAGRAREYVTFLTVTPNLTSVYIANHRPAFTHLAVRIGGRYVVAGNMSISPNTTYPSLLEDGRVEYRVALTEDAAPRLEEIRIWGPLQEDADIQVYRRYGEEYGNATRPDITFTYFQPKPRQAWVWAAVRGPCSVSCGAGLRWVNYSCLDQARKELVETVQCQGSQQPPAWPEACVLEPCPPYWAVGDFGPCSASCGGGLRERPVRCVEAQGSLLKTLPPARCRAGAQQPAVALETCNPQPCPARWEVSEPSSCTSAGGAGLALENETCVPGADGLEAPVTEGPGSVDEKLPAPEPCVGMSCPPGWGHLDATSAGEKAPSPWGSIRTGAQAAHVWTPAAGSCSVSCGRGLMELRFLCMDSALRVPVQEELCGLASKPGSRREVCQAVPCPARWQYKLAACSVSCGRGVVRRILYCARAHGEDDGEEILLDTQCQGLPRPEPQEACSLEPCPPRWKVMSLGPCSASCGLGTARRSVACVQLDQGQDVEVDEAACAALVRPEASVPCLIADCTYRWHVGTWMECSVSCGDGIQRRRDTCLGPQAQAPVPADFCQHLPKPVTVRGCWAGPCVGQGTPSLVPHEEAAAPGRTTATPAGASLEWSQARGLLFSPAPQPRRLLPGPQENSVQSSACGRQHLEPTGTIDMRGPGQADCAVAIGRPLGEVVTLRVLESSLNCSAGDMLLLWGRLTWRKMCRKLLDMTFSSKTNTLVVRQRCGRPGGGVLLRYGSQLAPETFYRECDMQLFGPWGEIVSPSLSPATSNAGGCRLFINVAPHARIAIHALATNMGAGTEGANASYILIRDTHSLRTTAFHGQQVLYWESESSQAEMEFSEGFLKAQASLRGQYWTLQSWVPEMQDPQSWKGKEGT
Ability to process VWF multimers under denaturing conditions [1]: ++ | vortex assay: processing of VWF multimers under shear stress [1]: Combinations of NGLY3 plus L591A/R636A/L637A/L668A and NGLY3 plus R568A/Y665A efficiently processed VWF multimers | Activity level (% relative to wild type ADAMTS13) VWFFRETS73 (% relative to wild type ADAMTS13) [2]: 95

B2: ADAMTS13 variant L591A/R636A/L637A/L668A (protein)
chain: B1 chain with N534K
Ability to process VWF multimers under denaturing conditions [1]: ++ | vortex assay: processing of VWF multimers under shear stress [1]: the proteolytic activity of R568A/Y665A and the L591A/R636A/L637A/L668A variants were reduced when compared to wild type ADAMTS13 | Activity level (% relative to wild type ADAMTS13) VWFFRETS73 (% relative to wild type ADAMTS13) [2]: 90

B3: ADAMTS13 variant R568A/Y665A (protein)
chain: B1 chain with R494A, A517L, N534K, A562R, A563L, Y591A, A594L
Ability to process VWF multimers under denaturing conditions [1]: ++ | vortex assay: processing of VWF multimers under shear stress [1]: the proteolytic activity of R568A/Y665A and the L591A/R636A/L637A/L668A variants were reduced when compared to wild type ADAMTS13 | Activity level (% relative to wild type ADAMTS13) VWFFRETS73 (% relative to wild type ADAMTS13) [2]: 120

B4: ADAMTS13 variant NGLY3 + R568A/Y665A (protein)
chain: B1 chain with R494A, A517L, A562R, A563L, Y591A, A594L
Ability to process VWF multimers under denaturing conditions [1]: ++ | vortex assay: processing of VWF multimers under shear stress [1]: Combinations of NGLY3 plus L591A/R636A/L637A/L668A and NGLY3 plus R568A/Y665A efficiently processed VWF multimers | Activity level (% relative to wild type ADAMTS13) VWFFRETS73 (% relative to wild type ADAMTS13) [2]: 120
